Source: patent US20070004636

B1: rat m-calpain (Calpain 2, rat recombinant, E. coli, Calbiochem, Inc.) (protein)
chain: MAGIAMKLAKDREAAEGLGSHERAIKYLNQDYETLRNECLEAGALFQDPSFPALPSSLGFKELGPYSSKTRGIEWKRPTEICADPQFIIGGATRTDICQGALGDCWLLAAIASLTLNEEILARVVPLDQSFQENYAGIFHFQFWQYGEWVEVVVDDRLPTKDGELLFVHSAEGSEFWSALLEKAYAKINGCYEALSGGATTEGFEDFTGGIAEWYELRKPPPNLFKIIQKALEKGSLLGCSIDITSAADSEAVTYQKLVKGHAYSVTGAEEVESSGSLQKLIRIRNPWGQVEWTGKWNDNCPSWNTVDPEVRANLTERQEDGEFWMSFSDFLRHYSRLEICNLTPDTLTCDSYKKWKLTKMDGNWRRGSTAGGCRNYPNTFWMNPQYLIKLEEEDEDDEDGERGCTFLVGLIQKHRRRQRKMGEDMHTIGFGIYEVPEELTGQTNIHLSKNFFLTTRARERSDTFINLREVLNRFKLPPGEYVLVPSTFEPHKNGDFCIRVFSEKKADYQTVDDEIEANIEEIEANEEDIGDGFRRLFAQLAGEDAEISAFELQTILRRVLAKREDIKSDGFSIETCKIMVDMLDEDGSGKLGLKEFYILWTKIQKYQKIYREIDVDRSGTMNSYEMRKALEEAGFKLPCQLHQVIVARFADDELIIDFDNFVRCLVRLEILFKIFKQLDPENTGTIQLDLISWLSFSVL
B2: human µ-calpain extracted from human erythrocytes (Calpain 1, human erythrocytes; Calbiochem, Inc.) (protein)
chain: SEEIITPVYCTGVSAQVQKQRARELGLGRHENAIKYLGQDYEQLRVRCLQSGTLFRDEAFPPVPQSLGYKDLGPNSSKTYGIKWKRPTELLSNPQFIVDGATRTDICQGALGDCWLLAAIASLTLNDTLLHRVVPHGQSFQNGYAGIFHFQLWQFGEWVDVVVDDLLPIKDGKLVFVHSAEGNEFWSALLEKAYAKVNGSYEALSGGSTSEGFEDFTGGVTEWYELRKAPSDLYQIILKALERGSLLGCSIDISSVLDMEAITFKKLVKGHAYSVTGAKQVNYRGQVVSLIRMRNPWGEVEWTGAWSDSSSEWNNVDPYERDQLRVKMEDGEFWMSFRDFMREFTRLEICNLTPDALKSRTIRKWNTTLYEGTWRRGSTAGGCRNYPATFWVNPQFKIRLDETDDPDDYGDRESGCSFVLALMQKHRRRERRFGRDMETIGFAVYEVPPELVGQPAVHLKRDFFLANASRARSEQFINLREVSTRFRLPPGEYVVVPSTFEPNKEGDFVLRFFSEKSAGTVELDDQIQANLPDEQVLSEEEIDENFKALFRQLAGEDMEISVKELRTILNRIISKHKDLRTKGFSLESCRSMVNLMDRDGNGKLGLVEFNILWNRIRNYLSIFRKFDLDKSGSMSAYEMRMAIESAGFKLNKKLYELIITRYSEPDLAVDFDNFVCCLVRLETMFRFFKTLDTDLDGVVTFDLFKWLQLTMFA

Tests used:
[1] = target: human insulin promoter factor 1 (IPF-1), His and Xpress-tagged at the N-terminus
[2] = target: T1, human hepatocyte nuclear factor 1α (HNF-1α), His and Xpress-tagged at the N-terminus (not fully specified)
T1 chain: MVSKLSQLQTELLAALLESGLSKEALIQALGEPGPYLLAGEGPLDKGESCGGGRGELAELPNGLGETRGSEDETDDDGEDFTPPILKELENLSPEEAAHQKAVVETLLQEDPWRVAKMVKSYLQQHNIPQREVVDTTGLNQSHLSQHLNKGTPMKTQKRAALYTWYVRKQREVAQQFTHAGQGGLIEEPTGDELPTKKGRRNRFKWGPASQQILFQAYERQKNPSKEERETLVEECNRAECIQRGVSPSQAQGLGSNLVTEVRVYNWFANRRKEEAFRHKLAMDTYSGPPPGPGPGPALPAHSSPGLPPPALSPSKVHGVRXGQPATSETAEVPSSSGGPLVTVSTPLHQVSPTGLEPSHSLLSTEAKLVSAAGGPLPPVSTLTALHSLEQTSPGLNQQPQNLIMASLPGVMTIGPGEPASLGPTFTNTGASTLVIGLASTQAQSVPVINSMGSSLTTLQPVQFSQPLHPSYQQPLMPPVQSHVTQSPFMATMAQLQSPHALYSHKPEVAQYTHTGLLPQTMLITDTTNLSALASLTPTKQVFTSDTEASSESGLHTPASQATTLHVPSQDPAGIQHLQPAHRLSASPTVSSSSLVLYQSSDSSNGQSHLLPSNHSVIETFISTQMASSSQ

[3] = target: T2, human hepatocyte nuclear factor 4α (HNF-4α), His and Xpress-tagged at the N-terminus
T2 chain: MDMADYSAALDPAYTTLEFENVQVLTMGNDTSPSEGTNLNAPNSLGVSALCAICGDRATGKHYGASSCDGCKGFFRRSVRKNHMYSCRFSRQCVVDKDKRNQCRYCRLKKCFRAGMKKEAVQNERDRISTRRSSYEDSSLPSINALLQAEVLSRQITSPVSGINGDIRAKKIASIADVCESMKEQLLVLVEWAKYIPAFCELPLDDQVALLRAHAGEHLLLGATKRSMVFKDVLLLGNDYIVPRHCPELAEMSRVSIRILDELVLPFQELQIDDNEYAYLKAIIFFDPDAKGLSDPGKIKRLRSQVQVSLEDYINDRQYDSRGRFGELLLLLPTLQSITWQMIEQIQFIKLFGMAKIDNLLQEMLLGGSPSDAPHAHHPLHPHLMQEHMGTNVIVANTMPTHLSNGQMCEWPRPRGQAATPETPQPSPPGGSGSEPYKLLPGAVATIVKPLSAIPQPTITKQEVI

Chain of human insulin promoter factor 1 (IPF-1), His and Xpress-tagged at the N-terminus (chain, as listed by the source): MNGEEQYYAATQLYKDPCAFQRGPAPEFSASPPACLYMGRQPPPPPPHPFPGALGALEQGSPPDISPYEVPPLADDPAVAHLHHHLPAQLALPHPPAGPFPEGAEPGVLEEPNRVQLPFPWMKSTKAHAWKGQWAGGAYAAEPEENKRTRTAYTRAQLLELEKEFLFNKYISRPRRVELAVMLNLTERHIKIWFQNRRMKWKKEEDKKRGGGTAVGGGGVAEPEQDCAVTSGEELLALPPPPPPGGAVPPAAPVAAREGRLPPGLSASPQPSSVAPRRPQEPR

| Protein | in vitro protein degradation test, Western blotting with anti-Xpress and anti-IPF-1 antibody [1] | in vitro protein degradation test, Western blotting with anti-Omni/M21 and anti-HNF-1α antibody [2] | in vitro protein degradation test, Western blotting with anti-HNF-4α antibody [3] |
| --- | --- | --- | --- |
| B1 | the in vitro degradation of IPF-1 by each of human µ-calpain, rabbit m-calpain and rat m-calpain was observed | the in vitro degradation of HNF-1α by each of human µ-calpain, rabbit m-calpain and rat m-calpain was observed | – |
| B2 | the in vitro degradation of IPF-1 by each of human µ-calpain, rabbit m-calpain and rat m-calpain was observed | the in vitro degradation of HNF-1α by each of human µ-calpain, rabbit m-calpain and rat m-calpain was observed | the degradation of HNF-4α by human µ-calpain was observed |
